Source: patent publication US20190048076A1

Molecular target: CD16 on CD16-transfected BW cells (FcγRIIIA-transfected BW cell line) (UniProt P08637)
Assay: FACS on BW-CD16 cells

Sequence of UniProt P08637 (P08637 17-254 limits assumed): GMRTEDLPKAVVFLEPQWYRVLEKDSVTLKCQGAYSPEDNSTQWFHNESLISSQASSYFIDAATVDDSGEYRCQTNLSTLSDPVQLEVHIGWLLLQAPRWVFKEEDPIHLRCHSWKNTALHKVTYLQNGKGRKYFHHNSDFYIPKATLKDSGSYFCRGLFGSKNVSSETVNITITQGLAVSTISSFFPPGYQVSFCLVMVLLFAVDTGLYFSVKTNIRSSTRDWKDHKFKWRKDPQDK

rituximab (intact, undigested) (antibody)
binding percentage: 99.8%
